Earlier results on 1 substance are cited in patent US20240082365A1, “MULTIDISCIPLINARY TREATMENT OF CHRONIC DISEASE USING REGENERATIVE CELLS AND TECHNOLOGIES” (priority 2022, published 2024).

Data set [1] concerns metastatic renal cell carcinoma (RCC) and metastatic melanoma. The conditions noted are these: high-dose, e.g. IV bolus 600,000 IU/kg every 8 hours for up to 14 doses.
[2] abbreviates: subcutaneous, one-compartment model.

For the substance aldesleukin, under “after SC administration”, the “time at which peak plasma levels are reached” value is 2 to 6 h. Under setting [2], the absorption half-life was 0.75 h and the elimination half-life was 3 to 5 h. In addition, in data set [1], the antitumor activity entry was “demonstrated antitumor activity”.
